Earlier results on one substance are cited in PMC3767571.

The data set concerns the target Sortilin (Homo sapiens) (UniProt Q99523).
Chain of UniProt Q99523 (Q99523 78-755): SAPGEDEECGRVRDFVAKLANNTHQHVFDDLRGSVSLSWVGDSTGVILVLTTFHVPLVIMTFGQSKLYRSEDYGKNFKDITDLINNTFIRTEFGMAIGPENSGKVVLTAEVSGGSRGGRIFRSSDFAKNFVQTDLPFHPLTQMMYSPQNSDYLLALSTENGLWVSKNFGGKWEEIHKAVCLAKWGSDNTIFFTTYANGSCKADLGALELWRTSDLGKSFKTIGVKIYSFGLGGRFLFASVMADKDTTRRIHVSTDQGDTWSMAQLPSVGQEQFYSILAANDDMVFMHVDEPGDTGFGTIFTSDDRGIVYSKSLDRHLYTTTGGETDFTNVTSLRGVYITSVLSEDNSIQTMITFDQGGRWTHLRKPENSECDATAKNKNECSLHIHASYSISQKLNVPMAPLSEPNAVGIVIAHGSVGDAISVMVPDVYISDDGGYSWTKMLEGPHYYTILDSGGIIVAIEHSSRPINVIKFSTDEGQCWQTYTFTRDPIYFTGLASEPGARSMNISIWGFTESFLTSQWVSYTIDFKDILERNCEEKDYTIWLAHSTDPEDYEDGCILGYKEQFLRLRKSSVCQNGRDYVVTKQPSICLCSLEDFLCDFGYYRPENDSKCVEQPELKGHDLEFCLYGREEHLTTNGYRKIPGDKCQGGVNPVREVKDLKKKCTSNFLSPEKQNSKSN

In the case of Progranulin (from UniProt P28799), the Kd is 11 nM.

By Kd is commonly meant the concentration at which binding is half-saturated.
